To fix the notation:
B1: library; numbered along this chain (parent)
chain: MNIQIGELAKRTACPVVTIRFYEQEGLLPPPGRSRGNFRLYGEEHVERLQFIRHCRSLDMPLSDVRTLLSYRKRPDQDCGEVNMLLDEHIRQVESRIGALLELKHHLVELREACSGARPAQSCGILQGLSDCVCDTRGTTAHPSD

± gives the standard deviation of the averaged measurements.

In data set [1] the parent is B1. In words: sfGFP reporter fluorescence (15 h) (µM FITC); higher = higher leak. The note with it: library round: Round 0; ligand: none. A digest of the protocol: (§1)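 An Echo normalized PCR-made linear PbrR templates to 5 nM and assembled 1 μL reactions in BL21 Star (DE3) PANOx-SP extract carrying the pPbrR-sfGFP reporter plasmid and 30 μg/mL GamS. Reactions received 1 µM lead chloride, 30 µM zinc acetate or no metal and stood 15 hr at 30 °C. Fluorescence at 485/528 nm (Synergy Neo2) was converted with FITC standard curves made in 50 mM sodium borate pH 8.5. Endpoint sfGFP signal is given in µM FITC, from up to three biological replicates.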

Data set [2] covers variants of B1. In words: sfGFP reporter fluorescence (15 h) (µM FITC); higher = stronger transcriptional activation. The note with it: library round: Round 0. The gist of the method: as §1

These results are taken from the supplement of paper PMC12783771.

Consider MNIQIGELAKRTACPVVTIRFYEQEGLLPPPGRSRGNFRLYGEEHVERLQFIRHCRSLDMPLSAVRTSLSYRKRPDQDCGEVNMLLDEHIRQVESRIGALLELKHHLVELREACSGARPAQSCGILQGLSDCVCDTRGTTAHPSD [D64A L68S], for which the sfGFP reporter fluorescence in data set [1] is 0.0623 ± 0.0021; in data set [2] (ligand: 1 µM Pb), 0.0597 ± 0.0026; in data set [2] (ligand: 30 µM Zn) it was 0.0803 ± 0.0036.
In the same order, the values of MNIQIGELAKRTACPVVTIRFYEQEGLSPPPGRSRGNFRLYGEEHVERLQFIRHCRSLDMPLSDVRTLLSYRKRPDQDCGEVNMLLDEHIRQVESRIGALLELKHHLVELREACSGARPAQSCGILQGLSDCVCDTRGTTAHPSD [L28S] are 0.0627 ± 0.0015, 0.0632 ± 0.0023 and 0.0715.
Turning to MNIQIGELAKRTACPVVTIRFYEQEGLLPPPGRSRGNFRLYGEEHVERLQFIRHCRSLDLPLSKVRTLLSYRKRPDQDCGEVNMLLDEHIRQVESRIGALLELVHHLVELREACSGARPAQSCGILQGLSDCVCDTRGTTAHPSD [M60L D64K K104V], the sfGFP reporter fluorescence in data set [1] turned out to be 2.02 ± 0.17; in data set [2] (ligand: 1 µM Pb) it was 4.2 ± 0.4; in data set [2] (ligand: 30 µM Zn), 4.63 ± 0.11.
Consider MNIQIGELAKRTACPVVTIRFYEQEGLLPPPGRSRGNFRLYGEEHVERLQFIRHNRSLDMPLSDVRTLLSYRKRPDQDCGEVNMLLDEHIRQVESRIGALLELKHHLVELREACSGARPAQSCGILQGLSDCVCDTRGTTAHPSD [C55N], for which the sfGFP reporter fluorescence in data set [1] stood at 0.0594 ± 0.0015; in data set [2] (ligand: 1 µM Pb), 0.0583 ± 0.0015; in data set [2] (ligand: 30 µM Zn), 0.057 ± 0.0034.
Regarding MNIQIGELAKRTACPVVTIRFYEQEGLLPPPGRSRGNFRLYGEEHVERLQFIRHCRSLDMPLSDVRTLLSYRKRPDQDCGEVNMLLDEHIRQVESRIGALLELKHHLVELREACSGARPAQSCGILQGLSDCVCDARGTTAHPSD [T136A], the sfGFP reporter fluorescence in data set [1] worked out at 0.0601 ± 0.001; in data set [2] (ligand: 1 µM Pb), 0.0696 ± 0.0031; in data set [2] (ligand: 30 µM Zn) it was 0.668 ± 0.013.
For MNIQIGELAKRTACRVVTIRFYEQEGLLPPPGRSRGNFRLYGEEHVERLQFIRHCRSLDMPLSDVRTLLSYRKRPDQDCGEVNMLLDEHIRQVESRIGALLELKHHLVELREACSGARPAQSCGILQGLSDCVCDTRGTTAHPSD [P15R], the results for the sfGFP reporter fluorescence in data set [1], in data set [2] (ligand: 1 µM Pb) and in data set [2] (ligand: 30 µM Zn) were 0.06341 ± 0.00052, 0.0876 ± 0.0021 and 1.04 ± 0.064, respectively.
The like results for MNIQIGELAKRTACPVVTIRFPEQEGLLPPPGRSRGNFRLYGEEHVERLQFIRHCRSLDMPLSDVRTLLSYRKRPDQDCGEVNMLLDEHIRQVESRIGALLELKHHLVELREACSGARPAQSCGILQGLSDCVCDTRGTTAHPSD [Y22P] were, in that order, 0.0618 ± 0.0018, 0.06066 ± 0.00026 and 0.0621 ± 0.0023.
In the same order, the values of MNIQIGELAKRTACPVVTIRFIEQEGLLPPPGRSRGNFRLYGEEHVERLQFIRHCRSLDMPLSDVRTLLSYRKRPDQDCGEVNMLLDEHIRQVESRIGALLELKHHLVELREACSGARPAQSCGILQGLSDCVCDTRGTTAHPSD [Y22I] are 0.0605 ± 0.0015, 0.0583 ± 0.0015 and 0.0564 ± 0.0036.
The like results for MNIQIGELAKRTACPVVTIRFYEQEGLLPPPGRSRTNFRLYGEEHVERLQFIRHCRSLDMPLSDVRTLLSYRKRPDQDCGEVNMLLDEHIRQVESRIGALLELKHHLVELREACSGARPAQSCGILQGLSDCVCDTRGTTAHPSD [G36T] were, in that order, 0.06469 ± 0.00026, 0.08943 ± 0.00052 and 0.866 ± 0.074.
For MNIQIGELAKRTACPVVTIRFYEQEGKLPPPGRSRGNFRLYGEEHVERLQFIRHCRSLDMPLSDVRTLLSYRKRPDQDCGEVNMLLDEHIRQVESRIGALLELKHHLVELREACSGARPAQSCGILQGLSDCVCDTRGTTAHPSD [L27K], the sfGFP reporter fluorescence turned out to be 0.064 ± 0.0013 in data set [1], 0.06084 ± 0.00052 in data set [2] (ligand: 1 µM Pb) and 0.0614 ± 0.0018 in data set [2] (ligand: 30 µM Zn).
As to MNIQIGELAKRTACPVVTIRFYEQEGLLPPPGRSRGNFRLYGEEHVERLQFIRHCRSLDMPLSDVRTLLSYRKRPDQDCGEVNMLLDEIIRQVESRIGALLELKHHLVELREACSGARPAQSCGILQGLSDCVCDTRGTTAHPSD [H89I], the sfGFP reporter fluorescence worked out at 0.0539 ± 0.0047 in data set [1], 0.0537 ± 0.0018 in data set [2] (ligand: 1 µM Pb) and 0.0594 ± 0.0021 in data set [2] (ligand: 30 µM Zn).
In the same order, the values of MNIQIGELAKRTACPVVTIRFYEQEGLLPPPGRSRGNFRLYGEEHVERLQFIRHCRSLDMPLSDVRTLLSYRKRPDQDCGEVNMLLDEHIRQVESRIGALLELKHHLVELREACSGARPAQSCGILQELSDCVCDTRGTTAHPSD [G128E] are 0.0599 ± 0.00078, 0.0713 ± 0.0013 and 0.535 ± 0.051.
The like results for MNIQIGELAKRTACPVVTIRFYEQEGLLPPPGRSRGNFRLYGCEHVERLQFIRHCRSLDMPLSDVRTLLSYRKRPDQDCGEVNMLLDEHIRQVESRIGALLELKHHLVELREACSGARPAQSCGILQGLSDCVCDTRGTTAHPSD [E43C] were, in that order, 0.06066 ± 0.00026, 0.0887 ± 0.0042 and 0.481 ± 0.018.
In the same order, the values of MNIQIGELAKRTACPVVTIRFYEQEGLLPQPGRSRGNFRLYGEEHVERLQFIRHCRSLDMPLSDVRTLLSYRKRPDQDCGEVNMLLDEHIRQVESRIGALLELKHHLVELREACSGARPAQSCGILQGLSDCVCDTRGTTAHPSD [P30Q] are 0.06395 ± 0.00026, 0.0925 ± 0.0039 and 1.19 ± 0.066.
